Measured values as given in article PMC6643034.

Target: CXCL8 (human)

B1: Evasin 3 (EVA3) (natural protein)
chain: DGGLVSTIESRTSGDGADNFDVVSCNKNCTSGQNECPEGCFCGLLGQNKKGHCYKIIGNLSGEPPVVRR
modifications: also: glycosylated
- neutralization of human CXCL8-induced granulocyte migration (Transwell, EC80 dose of CXCL8, EVA3 0.02–100 nM); mean IC50 of four biological replicates: 1.94e-09 M
